Measurements from PMC6708749.

How the values were obtained:
Experiment in all cases: SEC
[1] = target: ELIC-α1GABAAR chimera, Q242L mutant (Erwinia chrysanthemi | human)
[2] = target: ELIC-α1GABAAR chimera, Q242W mutant (Erwinia chrysanthemi | human)
[3] = target: ELIC-α1GABAAR chimera, W246L mutant (Erwinia chrysanthemi | human)
[4] = target: ELIC-α1GABAAR chimera, WT (Erwinia chrysanthemi | human)

ELIC-α1GABAAR chimera, Q242L mutant
stoichiometry N [1]: 5

ELIC-α1GABAAR chimera, Q242W mutant
stoichiometry N [2]: 5

ELIC-α1GABAAR chimera, W246L mutant
stoichiometry N [3]: 5

ELIC-α1GABAAR chimera, WT
stoichiometry N [4]: 5

ELIC-β3GABAAR chimera
stoichiometry N [4]: 5
